Reference: publication PMC9060916

What was measured:
alpha fetoprotein (AFP) = target: T1, alpha fetoprotein (AFP) (human, UniProt P02771 19-609); experiment: electrochemical sandwich aptasensor
T1 sequence: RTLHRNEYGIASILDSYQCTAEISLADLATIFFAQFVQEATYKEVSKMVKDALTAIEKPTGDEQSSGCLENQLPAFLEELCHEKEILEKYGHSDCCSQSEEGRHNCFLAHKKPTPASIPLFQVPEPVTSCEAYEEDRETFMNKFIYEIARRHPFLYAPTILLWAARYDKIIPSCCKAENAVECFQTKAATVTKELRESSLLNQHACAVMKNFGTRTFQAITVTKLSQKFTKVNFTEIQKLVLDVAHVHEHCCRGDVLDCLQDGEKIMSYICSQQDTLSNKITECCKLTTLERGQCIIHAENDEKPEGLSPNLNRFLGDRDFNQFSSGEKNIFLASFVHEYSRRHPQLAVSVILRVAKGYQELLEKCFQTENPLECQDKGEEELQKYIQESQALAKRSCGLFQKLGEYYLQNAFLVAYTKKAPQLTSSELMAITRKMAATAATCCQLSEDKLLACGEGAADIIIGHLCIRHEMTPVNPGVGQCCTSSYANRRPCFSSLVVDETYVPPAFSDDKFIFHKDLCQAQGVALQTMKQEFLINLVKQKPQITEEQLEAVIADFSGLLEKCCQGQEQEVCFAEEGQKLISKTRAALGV

C-reactive protein (CRP) = target: T2, C-reactive protein (CRP) (UniProt P02741 19-224); experiment: electrochemical sandwich aptasensor
T2 sequence: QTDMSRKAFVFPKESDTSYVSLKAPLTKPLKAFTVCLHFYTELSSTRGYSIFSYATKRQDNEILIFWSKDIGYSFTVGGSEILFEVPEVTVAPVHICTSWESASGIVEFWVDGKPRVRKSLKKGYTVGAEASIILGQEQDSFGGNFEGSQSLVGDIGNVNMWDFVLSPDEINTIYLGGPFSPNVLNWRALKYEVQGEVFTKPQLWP

Row | Binder | binding result (alpha fetoprotein (AFP)) | binding result (C-reactive protein (CRP))
1 | ATACCAGCTTATTCAATTATG (ssDNA, 5' HS-(CH2)6) [HS-P-ATG] | no binding | no binding
2 | GACATACCAGCTTATTCAATT (ssDNA, 5' HS-(CH2)6) [HS-GAC-P] | no binding | no binding
